Key:
Test in all cases: single-molecule force spectroscopy
[1] = target: unmodified nucleosome (human histone octamer on 601 DNA) in nucleosome arrays (human) (UniProt P04908)
[2] = target: 12-mer array with 50% H3K27M mutant copies of H3 (human) (UniProt P04908)
[3] = target: 12-mer array with an equimolar mixture of unmodified and H3K27me3-containing nucleosomes (UniProt P04908)
[4] = target: H3K27M mutant nucleosome (100% H3K27M 12-mer array) (human) (UniProt P04908)

Q: Which average transition force (all clusters) [1] does the source give for “PRC2–AEBP2 complex (from UniProt Q15910;O75530;Q09028;Q15022;Q6ZN18)” here?
A: 14.5 pN

Q: With “Polycomb repressive complex 2 (PRC2) core complex (from UniProt Q15910;O75530;Q09028;Q15022)” as the substance, how does the average transition force (all clusters), with SAM [2] read?
A: 18.3 pN

Q: What about the average C3 transition force, with SAM [1] of the same substance?
A: 17.8 pN

Q: And the average C4 transition force, with SAM [1]?
A: 19.8 pN

Q: What about the average rupture force of C3 transitions (adjacent nucleosome pair) [1] of the same substance?
A: 16.3 pN

Q: What about the average transition force (all clusters) [1] of the same substance?
A: 17 pN

Q: And the average transition force (all clusters), with SAM [1]?
A: 17.8 pN

Q: What about the average rupture force of C3 transitions [3] of the same substance?
A: 14.6 pN

Q: And the average rupture force of C4 transitions [3]?
A: 16.9 pN

Q: And the average C3 transition force, with SAM [4]?
A: 19.6 pN

Q: And the average C4 transition force, with SAM [4]?
A: 26.1 pN

Q: What about the average transition force (all clusters), with SAM [4] of the same substance?
A: 19.6 pN

Reference: PMC7720148
